Measured values reported in patent US12246062B2, “Recombinant human acid alpha-glucosidase” (Amicus Therapeutics, Inc., priority 2017, dated 2025).
Marks after values point to notes of the source that are not given here.

Experiments:
CIMPR [1] = molecular target: T1, CIMPR (Homo sapiens, UniProt P11717); test: CIMPR affinity chromatography; format: binding; conditions: CIMPR affinity column; fraction of total enzyme by GAA activity
Text: Multiple batches of the rhGAA according to the invention were produced in shake flasks and in perfusion bioreactors using CHO cell line GA-ATB200, the product of which is referred to as “ATB200.” Weak anion exchange (“WAX”) liquid chromatography was used to fractionate ATB200 rhGAA according to terminal phosphate and sialic acid. Elution profiles were generated by eluting the ERT with increasing amount of salt. The profiles were monitored by UV (A280 nm).
To evaluate the ability of the conventional rhGAAs in Myozyme® and Lumizyme® to interact with the CIMPR, the two conventional rhGAA preparations were injected onto a CIMPR affinity column (which binds rhGAA having M6P groups) and the flow through collected. The bound material was eluted with a free M6 gradient. Fractions were collected in 96-well plate and GAA activity assayed by 4MU-α-glucosidase substrate. The relative amounts of unbound (flow through) and bound (M6P eluted) rhGAA were determined based on GAA activity and reported as the fraction of total enzyme. […] Indeed, only 27% of the rhGAA in Myozyme® and 22% of the rhGAA in Lumizyme® contained M6P that can be productive to target it to the CIMPR on muscle cells.

[2] = system: normal and Pompe fibroblast cell lines; test: Cellular uptake of rhGAA in fibroblasts; format: cell-based; conditions: for concentration that saturates cellular receptors: 16-hr incubation, internalized GAA by 4MU-α-Glucoside hydrolysis; for uptake efficiency constant (Kuptake): extrapolated from uptake results
Method: The relative cellular uptake of ATB200 and Lumizyme® rhGAA were compared using normal and Pompe fibroblast cell lines. Comparisons involved 5-100 nM of ATB200 according to the invention with 10-500 nM conventional rhGAA product Lumizyme® After 16-hr incubation, external rhGAA was inactivated with TRIS base and cells were washed 3-times with PBS prior to harvest. Internalized GAA measured by 4MU-α-Glucoside hydrolysis and was graphed relative to total cellular protein and the results appear in FIGS. 11A-11C.
ATB200 was also shown to be efficiently internalized into cells. […] ATB200 saturates cellular receptors at about 20 nM, while about 250 nM of Lumizyme® is needed to saturate cellular receptors.

[3] = Thermostability assay using SYPRO Orange; format: physicochemical
Method: The stability of ATB200 in acidic or neutral pH buffers was evaluated in a thermostability assay using SYPRO Orange, as the fluorescence of the dye increases when proteins denature. […] As summarized in Table 6, the addition of AT2221 increased the melting temperature (Tm) of ATB200 by nearly 10° C.

Gaa KO mice [4] = test: Single fiber analysis, LAMP1/LC3 co-immunofluorescence; format: in vivo
Text: FIG. 17 depicts co-immunofluorescent staining of LAMP1 (green) (see for example, “B”) and LC3 (red) (see, for example, “A”) in single fibers isolated from the white gastrocnemius of Gaa KO mice treated with a vehicle, alglucosidase alfa, or ATB200. “C” depicts clearance of autophagic debris and absence of enlarged lysosome. A minimum of 30 fibers were examined from each animal.
As a result, a significant portion of muscle fibers analyzed (36-60%) from ATB200-treated mice appeared normal or near-normal.

Gaa KO mice [5] = test: Muscle fiber biomarkers LAMP1, LC3, dysferlin; format: in vivo
Method: The therapeutic effects of ATB200 and AT2221 were evaluated and compared against those of Alglucosidase alfa in Gaa KO mice. For the study, male Gaa KO (3- to 4-month old) and age-matched wild-type (WT) mice were used. Alglucosidase alfa was administered via bolus tail vein intravenous (IV) injection. In the co-administration regimen, AT2221 was administered via oral gavage (PO) 30 minutes prior to the IV injection of ATB200. Treatment was given biweekly. Treated mice were sacrificed after 14 days from the last administration and various tissues were collected for further analysis. Table 7 summarizes the study design:
Tissue samples were also analyzed for biomarker changes following the methods discussed in: Khanna R, et al. (2012), “The pharmacological chaperone AT2220 increases recombinant human acid α-glucosidase uptake and glycogen reduction in a mouse model of Pompe disease,” Plos One 7(7): e40776; and Khanna. […]
Similarly, intense LC3-positive aggregates in the muscle fibers of untreated Gaa KO mice signify the presence of autophagic zones and autophagy build-up. […] A similar observation was made when the expression of LC3 was assessed using western blot. […]
Dysferlin, a protein involved in membrane repair and whose deficiency/mistrafficking is associated with a number of muscular dystrophies, w as also assessed.

CIMPR [6] = molecular target: T1, CIMPR; test: CIMPR plate binding assay
Method: In addition to having a greater percentage of rhGAA that can bind to the CIMPR, it is important to understand the quality of that interaction. Lumizyme® and ATB200 receptor binding was determined using a CIMPR plate binding assay. Briefly, CIMPR-coated plates were used to capture GAA. Varying concentrations of rhGAA were applied to the immobilized receptor and unbound rhGAA was washed off. The amount of remaining rhGAA was determined by GAA activity. […] For Lumizyme®, there is on average only 10% of molecules having a bis-phosphorylated N-glycan. In contrast, on average every rhGAA molecule in ATB200 has at least one bis-phosphorylated N-glycan.
N-glycan analysis via MALDI-TOF mass spectrometry confirmed that on average each ATB200 molecule contains at least one natural bis-M6P N-glycan structure.

[7] = parameters: species or system human; conditions: in vivo
Method: Preclinical studies were conducted in Gaa knockout mice to evaluate the pharmacokinetics (PK) and efficiency of glycogen reduction at varying ATB200 enzyme replacement therapy (ERT) and AT2221 chaperone doses. […] Study ATB200-02 (NCT02675465) was then designed as an open-label fixed-sequence, ascending dose, first-in-human, phase 1/2 study to evaluate the safety, tolerability, PK, pharmacodynamics (PD), and efficacy of ATB200 co-administered with AT2221 in patients with Pompe disease. FIGS. 19A-19B present the ATB200-02 study design. Ambulatory patients who have previously received enzyme replacement therapy with alglucosidase alfa are referred to as ambulatory ERT-switch (or ERT-switch ambulatory) patients or Cohort 1 patients. Nonambulatory patients who have previously received enzyme replacement therapy with alglucosidase alfa are referred to as nonambulatory ERT-switch (or ERT-switch nonambulatory) patients or Cohort 2 patients. Ambulatory patients who have not previously received enzyme replacement therapy with alglucosidase alfa are referred to as ERT-naïve (or ERT-naïve ambulatory) patients or Cohort 3 patients. Total GAA protein concentrations in plasma for ATB200 at 5 mg/kg, 10 mg/kg, and 20 mg/kg were determined by validated LC-MS/MS quantification of rhGAA-specific “signature” peptide(s) […] (primary) and T50 (confirmatory) for 11 Cohort 1 patients who completed Stages 1 and 2, as well as for five Cohort 2 patients who completed the PK study in Stage 3. For Stage 1, blood samples for plasma total GAA protein concentration were collected prior to the start of ATB200 infusion and at 1, 2, 3, 3.5, 4, 4.5, 5, 6, 8, 10, 12, and 24 hour(s) after the start of infusion. For Stage 2 and Stage 3, blood samples for plasma total GAA protein concentration were collected prior to the start of infusion and at 1, 2, 3, 3.5, 4, 4.5, 5, 6, 8, 10, 12, and 24 hour(s) after the start of infusion.

[8] = single fibers from white gastrocnemius

T1 sequence (P11717 41-2491, species assumed): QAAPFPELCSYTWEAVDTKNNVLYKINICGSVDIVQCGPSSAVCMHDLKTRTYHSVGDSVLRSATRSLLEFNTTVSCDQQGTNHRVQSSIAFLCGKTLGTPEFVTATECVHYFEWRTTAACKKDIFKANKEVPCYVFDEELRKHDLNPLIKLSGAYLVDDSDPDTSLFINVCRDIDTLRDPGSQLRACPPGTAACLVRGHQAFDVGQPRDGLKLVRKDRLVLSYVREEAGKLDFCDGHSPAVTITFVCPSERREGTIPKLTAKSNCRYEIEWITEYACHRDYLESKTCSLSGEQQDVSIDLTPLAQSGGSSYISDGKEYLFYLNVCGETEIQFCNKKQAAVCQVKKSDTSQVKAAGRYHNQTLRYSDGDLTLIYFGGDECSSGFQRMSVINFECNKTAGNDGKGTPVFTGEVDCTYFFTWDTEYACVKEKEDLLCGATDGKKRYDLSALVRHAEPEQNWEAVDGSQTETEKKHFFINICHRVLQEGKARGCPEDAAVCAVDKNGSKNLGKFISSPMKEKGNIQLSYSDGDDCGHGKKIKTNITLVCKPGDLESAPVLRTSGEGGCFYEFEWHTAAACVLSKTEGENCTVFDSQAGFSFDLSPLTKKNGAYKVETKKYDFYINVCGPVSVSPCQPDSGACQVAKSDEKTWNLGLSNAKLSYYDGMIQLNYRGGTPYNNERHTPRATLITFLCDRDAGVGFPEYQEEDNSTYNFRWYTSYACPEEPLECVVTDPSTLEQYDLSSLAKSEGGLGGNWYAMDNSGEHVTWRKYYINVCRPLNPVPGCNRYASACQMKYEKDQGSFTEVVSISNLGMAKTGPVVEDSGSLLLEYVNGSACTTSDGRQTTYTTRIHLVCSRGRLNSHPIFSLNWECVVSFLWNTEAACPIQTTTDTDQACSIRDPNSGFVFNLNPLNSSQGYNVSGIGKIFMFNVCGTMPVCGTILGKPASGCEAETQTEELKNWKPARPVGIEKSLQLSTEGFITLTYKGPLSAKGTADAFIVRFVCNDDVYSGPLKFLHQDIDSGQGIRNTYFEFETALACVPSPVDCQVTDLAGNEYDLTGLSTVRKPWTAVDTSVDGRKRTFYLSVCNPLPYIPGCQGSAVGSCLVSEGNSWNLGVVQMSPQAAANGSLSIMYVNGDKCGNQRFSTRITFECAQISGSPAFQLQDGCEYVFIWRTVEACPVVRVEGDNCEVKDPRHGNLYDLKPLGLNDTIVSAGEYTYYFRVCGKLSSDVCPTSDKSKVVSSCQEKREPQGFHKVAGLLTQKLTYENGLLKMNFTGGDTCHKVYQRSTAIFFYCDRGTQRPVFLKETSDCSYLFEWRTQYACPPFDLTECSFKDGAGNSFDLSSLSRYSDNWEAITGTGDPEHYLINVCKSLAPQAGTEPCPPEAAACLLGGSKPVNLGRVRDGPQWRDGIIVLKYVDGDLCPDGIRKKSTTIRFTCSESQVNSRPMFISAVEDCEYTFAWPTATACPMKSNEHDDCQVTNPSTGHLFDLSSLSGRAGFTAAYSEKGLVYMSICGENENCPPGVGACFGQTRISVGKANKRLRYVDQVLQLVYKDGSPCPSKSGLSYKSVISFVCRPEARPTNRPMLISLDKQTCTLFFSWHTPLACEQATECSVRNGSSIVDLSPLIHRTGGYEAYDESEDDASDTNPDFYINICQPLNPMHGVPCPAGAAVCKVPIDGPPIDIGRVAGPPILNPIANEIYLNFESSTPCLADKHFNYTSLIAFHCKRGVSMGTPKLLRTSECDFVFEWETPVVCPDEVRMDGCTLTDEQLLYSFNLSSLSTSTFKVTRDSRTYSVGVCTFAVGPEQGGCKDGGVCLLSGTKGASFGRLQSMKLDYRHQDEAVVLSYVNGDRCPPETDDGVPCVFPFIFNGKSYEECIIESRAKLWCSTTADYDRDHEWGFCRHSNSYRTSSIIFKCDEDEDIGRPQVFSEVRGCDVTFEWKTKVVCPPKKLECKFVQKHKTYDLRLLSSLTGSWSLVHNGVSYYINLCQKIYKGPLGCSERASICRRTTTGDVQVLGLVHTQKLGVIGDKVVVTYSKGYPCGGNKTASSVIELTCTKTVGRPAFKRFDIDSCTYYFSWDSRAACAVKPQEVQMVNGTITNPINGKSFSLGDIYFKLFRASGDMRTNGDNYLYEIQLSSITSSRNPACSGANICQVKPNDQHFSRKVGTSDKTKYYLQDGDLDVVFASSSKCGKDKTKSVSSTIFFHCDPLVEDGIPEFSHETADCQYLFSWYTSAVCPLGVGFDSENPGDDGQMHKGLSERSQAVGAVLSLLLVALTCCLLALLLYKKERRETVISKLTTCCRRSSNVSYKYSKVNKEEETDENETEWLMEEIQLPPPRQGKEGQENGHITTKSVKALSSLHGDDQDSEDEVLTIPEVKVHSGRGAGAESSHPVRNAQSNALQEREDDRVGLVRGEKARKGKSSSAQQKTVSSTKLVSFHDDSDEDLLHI

Lumizyme®: conventional rhGAA product containing alglucosidase alfa, marketed by Genzyme [reference compound]
rhGAA that binds to the CIMPR (CIMPR [1]): 22%
rhGAA that did not bind to the CIMPR (CIMPR [1]): 78%
concentration that saturates cellular receptors [2]: about 250 nM
uptake efficiency constant (Kuptake) [2]: 56 nM

CCCCN1C[C@H](O)[C@@H](O)[C@H](O)[C@H]1CO [AT2221, (2R,3R,4R,5S)-1-butyl-2-(hydroxymethyl)piperidine-3,4,5-triol, reference compound]
stabilization of ATB200 ([3]; pH 7.4): stabilized ATB200 at pH 7.4 in a concentration-dependent manner

Myozyme®: conventional rhGAA product containing alglucosidase alfa, marketed by Genzyme
rhGAA that binds to the CIMPR (CIMPR [1]): 27%
rhGAA that did not bind to the CIMPR (CIMPR [1]): 73%
lysosome size and autophagic buildup compared to vehicle-treated mice (Gaa KO mice [4]; single fibers): did not show any significant difference

[199-arginine,223-histidine]prepro-α-glucosidase (human) [alglucosidase alfa, reference compound]
effect on autophagy (Gaa KO mice [5]): modest
Fibers with Autophagy Buildup (Gaa KO mice [4]; [8]): >90%
Fibers with Normal or Near-normal Appearance (Gaa KO mice [4]; [8]): <10%

ATB200: rhGAA with a high content of N-glycans bearing mono-M6P and bis-M6P, produced from a GA-ATB200 CHO cell line
binding to CIMPR compared with Lumizyme (CIMPR [6]; CIMPR-coated plates, varying rhGAA concentrations): bound to CIMPR significantly better than Lumizyme®
Kd (CIMPR [6]; M6P receptor plate binding assays, read-out: Ku, high-affinity binding to CIMPR): 2 to 4 nM
concentration that saturates cellular receptors [2]: about 20 nM
internalization into normal and Pompe fibroblast cells ([2]; compared with Lumizyme): internalized to a greater degree than the conventional rhGAA product Lumizyme®
uptake efficiency constant (Kuptake) [2]: 2-3 nm
Tm ([3]; pH 5.2): 67.3 °C
Tm ([3]; pH 7.4): 56.2 °C
increase of melting temperature (Tm) on addition of AT2221 ([3]; pH 7.4): ~10 °C
Tm ([3]; pH 7.4 + 10 μM AT2221): 61.6 °C
Tm ([3]; pH 7.4 + 30 μM AT2221): 62.9 °C
Tm ([3]; pH 7.4 + 100 μM AT2221): 66.0 °C
area with autophagic buildup (Gaa KO mice [4]; single fibers): reduced to various degrees
Fibers with Autophagy Buildup (Gaa KO mice [4]; [8]): 40-64%*
increase in distribution half-life (α-phase) ([7]; human): 40%
increase in partial AUC from time to maximum plasma concentration to 24 hours post-dose ([7]; human): 42.2%
AUC ratio, signature peptide T50 vs T09 [7]: 1.00
dose proportionality of ATB200 levels [7]: slightly greater-than-dose proportional
plasma total GAA protein exposure, ERT-naive (Cohort 3) vs ERT-switch (Cohort 1) [7]: no statistically significant difference
